Measured values reported in patent US20140220070A1, “USE OF PLANT CELL MEMBRANE TREATMENT OF OBESITY” (Thylabisco AB, priority 2005, published 2014).

Target: T1, pancreatic lipase (Homo sapiens, UniProt P16233)
T1 sequence (P16233 17-465): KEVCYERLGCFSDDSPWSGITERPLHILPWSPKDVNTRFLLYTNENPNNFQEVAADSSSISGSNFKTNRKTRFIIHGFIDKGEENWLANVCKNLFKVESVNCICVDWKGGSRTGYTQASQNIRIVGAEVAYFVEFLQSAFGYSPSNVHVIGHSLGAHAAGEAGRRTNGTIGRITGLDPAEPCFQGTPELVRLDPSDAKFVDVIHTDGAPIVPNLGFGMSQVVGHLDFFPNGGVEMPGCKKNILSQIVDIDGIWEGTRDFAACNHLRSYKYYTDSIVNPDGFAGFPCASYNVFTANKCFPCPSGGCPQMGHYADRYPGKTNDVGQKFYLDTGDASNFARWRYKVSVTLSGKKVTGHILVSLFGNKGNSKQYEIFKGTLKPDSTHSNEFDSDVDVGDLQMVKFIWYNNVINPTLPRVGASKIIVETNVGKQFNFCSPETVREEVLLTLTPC
Test: Measurement of the lipase activity (pH stat, tributyrin)
Type: biochemical
Conditions: increasing amounts of membranes/proteins, lipase + colipase, pH 7.0, curves only in FIG. 1-3
Protocol: The lipase activity was measured according to the following (Borgstrom B. and Erlanson C. European J. of Biochemistry 37: 60-68, 1973): 15 ml of an aqueous solution containing 1 mM Tris buffer pH 7.0, 1 mM calcium chloride, 150 mM sodium chloride, 4 mM sodiumtaurodeoxycholate, 0.5 μg lipase, 1 μg of colipase.
To this mixture 0.5 ml of tributyrin is added together with increasing amounts of membranes and the released fatty acids measured using a pH stat.

inhibition of pancreatic lipase: inhibition
Substance: transhydrogenase: isolated membrane protein, transhydrogenase prepared from E. coli
